Measured values taken from article PMC9536601.

Experiments:
[1] = molecular target: chimeric hexon of Ad5:H57.1 (Ad5 vector, hexon residues 112-593 from Ad57 hexon), on the virion (human adenovirus type 5 | human adenovirus type 57) (UniProt P04133); assay: SPR; Biacore T200; about 300 to 5,000 RU of Ad virions immobilised on a CM5 chip, coagulation factors flowed over at four concentrations, 50 uL/min; 10 mM HEPES, 150 mM NaCl, 1 mM CaCl2, 0.5 mM MgCl2, 0.1% BSA, 0.05% polysorbate 20, pH 7.4; global fit to a 1:1 kinetic interaction model, double referencing
[2] = molecular target: chimeric hexon of Ad5:H6.1 (Ad5 vector, hexon residues 112-593 from Ad6 hexon), on the virion (human adenovirus type 5 | human adenovirus type 6) (UniProt P04133); assay: as above
[3] = molecular target: chimeric hexon of Ad5:H6.3 (Ad5 vector, hexon residues 112-593 from Ad6 hexon, HVR7 IGNTETF), on the virion (human adenovirus type 5 | human adenovirus type 6) (UniProt P04133); assay: as above
[4] = molecular target: chimeric hexon of Ad5:H1.1 (Ad5 vector, hexon residues 112-593 from Ad1 hexon), on the virion (human adenovirus type 5 | human adenovirus type 1) (UniProt P04133); assay: as above
[5] = molecular target: chimeric hexon of Ad5:H6.2 (Ad5 vector, hexon residues 112-593 from Ad6 hexon, HVR7 IGNTDTF), on the virion (human adenovirus type 5 | human adenovirus type 6) (UniProt P04133); assay: as above
[6] = molecular target: chimeric hexon of the Ad5 vector Ad5:H6.1 (Ad5 hexon with residues 112-593 from Ad6 hexon, on virions) (human adenovirus 5 | human adenovirus 6) (UniProt P04133); assay: SPR; Biacore T200; about 300 to 5,000 RU of Ad virions immobilised on a CM5 chip, coagulation factors flowed over at four concentrations, 50 uL/min; running buffer 10 mM HEPES, 150 mM NaCl, 1 mM CaCl2, 0.5 mM MgCl2, 0.1% BSA, 0.05% polysorbate 20, pH 7.4; regeneration with 3 mM EDTA; global fit to a 1:1 kinetic interaction model, double referencing
[7] = molecular target: chimeric hexon of the Ad5 vector Ad5:H6.2 (Ad6 hexon section with HVR7 mutations, on virions) (human adenovirus 5 | human adenovirus 6) (UniProt P04133); assay: as above
[8] = molecular target: chimeric hexon of the Ad5 vector Ad5:H57.1 (Ad5 hexon with residues 112-593 from Ad57 hexon, on virions) (human adenovirus 5 | human adenovirus 57) (UniProt P04133); assay: as above
[9] = molecular target: chimeric hexon of the Ad5 vector Ad5:H1.1 (Ad5 hexon with residues 112-593 from Ad1 hexon, on virions) (human adenovirus 5 | human adenovirus 1) (UniProt P04133); assay: as above
[10] = molecular target: chimeric hexon of the Ad5 vector Ad5:H6.3 (Ad6 hexon section with HVR7 mutations, on virions) (human adenovirus 5 | human adenovirus 6) (UniProt P04133); assay: as above
[11] = molecular target: hexon of wild-type human adenovirus type 1 (on virions) (human adenovirus 1); assay: as above

bovine prothrombin (coagulation factor II) (from UniProt P00735 44-625) (natural protein)
Kd [1]: 27 nM | Kd [2]: 67 nM | Kd [3]: 2500 nM | Kd [4]: 34 nM | Kd [5]: 950 nM | Kd [6]: 67 nM | koff [6]: 0.0039 s⁻¹ | kon [6]: 58200 M⁻¹ s⁻¹ | Kd [7]: 950 nM | koff [7]: 0.0291 s⁻¹ | kon [7]: 30500 M⁻¹ s⁻¹ | Kd [8]: 27 nM | koff [8]: 0.000993 s⁻¹ | kon [8]: 37400 M⁻¹ s⁻¹ | Kd [9]: 34 nM | koff [9]: 0.00224 s⁻¹ | kon [9]: 65800 M⁻¹ s⁻¹ | Kd [10]: 2500 nM | koff [10]: 0.0729 s⁻¹ | kon [10]: 29200 M⁻¹ s⁻¹ | Kd [11]: 37 nM | koff [11]: 0.00193 s⁻¹ | kon [11]: 52800 M⁻¹ s⁻¹
